Assay: yeast display, Sf9 membrane polyspecificity reagent, FACS + sequencing; frameworks hold sequencing errors
Method in brief: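 A nanobody's polyreactivity label depends on the gate it was sorted from. Yeast display cells were stained with 10% biotinylated, detergent-solubilized Sf9 membrane reagent for 1 hour at 4 °C, enriched on streptavidin microbeads and sorted by FACS. The low and high (top ~1%) gates were set on anti-HA fluorescence for expression and streptavidin fluorescence for reagent binding.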
With “QVQLVESGRGLVQAGGSLRLSCAASGFIFRDYAMGLYRQAPGKVRELVAAISSRGGGTSYADSVKGRFTITRDNAKNTVYLQMNSLKPEDTAVYYCNKGYGRYVVTAYDYWGQGTQVTVSS” the “polyreactivity (PSR sort gate)” value was “high polyreactivity”.
With “QVQLVESGRGLVQAGGSLRLSCAASGFIFRYYAMGWYRQAPGKERELVAAINASGGRTYYADSVKGRFTISRDNARNSVYLQMNSLKPEDTAVYYCAAYRSYQTFDYWGQGTQVNVSS” the “polyreactivity (PSR sort gate)” value was “high polyreactivity”.
In the case of “QVQLVESGRGLVQAGGSLRLSCAASGFIFYSNAMGWYRQAPGKERELVAAISRGGGSTYFADSLKGRFTISRDNAKNTVYLQMNSLKPEDTAVYYCAKRRLSPQDDYWGQGTQVTVSS”, the “polyreactivity (PSR sort gate)” value is reported as “high polyreactivity”.
In the case of “QVQLVESGRGLVQAGGSLRLSCAASGFTFAGYAMGWYRQATGKERELVAAITWSGGRTYYADSVKGRFTISRDNAKNTVYLQMKSLKPEDTAVYYCAAASGRSRYEYWGQGTQVTVSS”, the “polyreactivity (PSR sort gate)” value is reported as “high polyreactivity”.
With “QVQLVESGRGLVQAGGSLRLSCAASGIIFTYNAMGWYRQAPGKERELVAAISAGGGSTYYADSVKGRFTISRDNAKNTVYLQMNSLKPEDTAVYYCAAARRYATQFHYDSWGQGTQVTVSS” the “polyreactivity (PSR sort gate)” value was “high polyreactivity”.
In the case of “QVQLVESGRGLVQAGGSLRLSCAASGITFLDYAMGWYRQAPGKERELVAAITKSGGSTYYADSVKGRFTISRDNAKNTVFLQMNSLKPEDTAVYYCAKGRHPLWVEQPYEFDYWGQGTQVTVSS”, the “polyreactivity (PSR sort gate)” value is reported as “low polyreactivity”.
With “QVQLVESGRGLVQAGGSLRLSCAASGITFVRYAMGWYRQAPGKEREFVAAITTSGGSTYYADSVKGRFTISRDNAKYSVYLQLNSLKPEDTAVYYCAARANAASRTFNYWGQGTQVTVSS” the “polyreactivity (PSR sort gate)” value was “high polyreactivity”.
In the case of “QVQLVESGRGLVQAGGSLRLSCAASGNTFGENAMGWYRKAPGKERELVAAISNGGTTNYADSVKGRFTISRDNAKNSVYLQMNSLKPEDTAVYYCNAKFGISQPGHSGLLKMDYWGQGTQVTVSS”, the “polyreactivity (PSR sort gate)” value is reported as “low polyreactivity”.
With “QVQLVESGRGLVQAGGSLRLSCAASGRIFDKYAMGWYRQAPGKERELVAAISSSGGSTYYADSVKGRFTISRDNAKNTVYLQMNSLKTEVTAVYYCARQRYYGYYYWGQGTQVTVSS” the “polyreactivity (PSR sort gate)” value was “high polyreactivity”.
In the case of “QVQLVESGRGLVQAGGSLRLSCAASGRIFRWYDMGWYRKAPGKERELVAAISSRGGSTYYADSVKGRFTISRDNAKNTVYLQMNSLKPEDTAVYYCAADTSGWQPRYDYWGQGTQVTVSS”, the “polyreactivity (PSR sort gate)” value is reported as “high polyreactivity”.
With “QVQLVESGRGLVQAGGSLRLSCAASGRIFSVNTMGWYRQAPGKERELVAGITGGGSTNYADSVKGRFTISRDNAKNTVYLQMNSLKPEDTAVYYCAAGWRSGFDYWGQGTQVTVSS” the “polyreactivity (PSR sort gate)” value was “high polyreactivity”.
In the case of “QVQLVESGRGLVQAGGSLRLSCAASGRTFRWYAMGWYRKAPGKERELVAAISGSGDRTYYADSVKGRFTISRDNAKNTVYLQMYSLKPVDTAVYYCYKAYLLYYTYARGDYWGQGTQVTVSS”, the “polyreactivity (PSR sort gate)” value is reported as “high polyreactivity”.
With “QVQLVESGRGLVQAGGSLRLSCAASGRTFYLYAMVWNIQAPGKERELVAAITFNGGSTYYADSVKGRFTISRDNAKNTVYLQMNSLKPEDTAVYYCAARLSKRSGYYYWGQVTQVTVSS” the “polyreactivity (PSR sort gate)” value was “high polyreactivity”.
With “QVQLVESGRGLVQAGGSLRLSCAASGSIFTTNAMGWYRQAPGKERELVAAISKSGASTYYADSVKGRVTISRDNAKNTVYLQMNSLKPEDTAVYYCAAGLRYTGRFRFYYWGQGTQVTVSS” the “polyreactivity (PSR sort gate)” value was “high polyreactivity”.
With “QVQLVESGRGLVQAGGSLRLSCAASGSTFATYAMGWYRQAPGKERELVAVITRGGRTYYADSVKGRFTISRDNAKNTVYLQMNSLKPEDNAVYYCAAKAYTYYARIGFDYWGQGTQVTVSS” the “polyreactivity (PSR sort gate)” value was “high polyreactivity”.
For “QVQLVESGRGLVQAGGSLRLSCAASGSTFFDYAMGWYRQAPGKERELVATISWNGGSTYYADSVKGRFTISRDTATNTVYLQMNSLKPEDTAVYYCAKDRGYRYLGDYWGQGTQVSVSS”, the “polyreactivity (PSR sort gate)” value was “low polyreactivity”.
In the case of “QVQLVESGRGLVQAGGSLRLSCAASGSTFGPYAMGWYRQAPGKEREFVAGISKSTSSTYYADSVKGRFTISRDNAKNTVYLQMNSLKPEDTAVYYCAAQGGRNRGYRYYWGQGTQVTVSS”, the “polyreactivity (PSR sort gate)” value is reported as “high polyreactivity”.
In the case of “QVQLVESGRGLVQAGGSLRLSCAASGSTFPKNAMGWYRQAPGKERELVASISSDGSTYYADSVKGRFTISRDNAKNTVYLQMNSLKPEDTAVYYCAAVLWEPPVHPGYDYWGQVTQVTVSS”, the “polyreactivity (PSR sort gate)” value is reported as “low polyreactivity”.
With “QVQLVESGRGLVQAGGSLRLSCAASGSTFQSNAMGWYRQATGKERELVAAIDQSGGSTYYADSVKGRFTISRHNAKNTVYLQMNSLKPEDSAVYYCAAEYYYPQQPRKWYGYWGQGTQVTVSS” the “polyreactivity (PSR sort gate)” value was “high polyreactivity”.
For “QVQLVESGRGLVQAGGSLRLSCAASGSTFVKYAMGWYRPAPGKERELVAAMNRSGASTYYADSVKGRFTISRDNAKNTVYLQMNSLKPEDTAVYYCAARFSWLGYYWGQGTQVTVSS”, the “polyreactivity (PSR sort gate)” value was “high polyreactivity”.
In the case of “QVQLVESGRGLVQAGGSLRLSCAASGSTFYANTMGWYRQAPGKERELVAAISQSGGSTYYADSVKGRFTISRDNAKNTVYLQMNSLKPEDTAVYYCAARRLPRKERKLYYWGQGTQVTVSS”, the “polyreactivity (PSR sort gate)” value is reported as “high polyreactivity”.
For “QVQLVESGRGLVQAGGSLRLSCAASGSTFYRYAMGWYRQAPGKERELVAGITGSGGRTYYADSVKGRFTISRDNAKNTVYLQMNSLKPEDTAVYYCNAYPSSSLFDYWGQGTQVTVSS”, the “polyreactivity (PSR sort gate)” value was “low polyreactivity”.
For “QVQLVESGRGLVQAGGSLRLSCAASGSTLYAYAMGWYRQAPGKESELVAAIRRGGRTNYADSVKGRFTISRDNAKNTVYLQMNSLKPEDTAVYYCAARGSKPYSNRLLDYWGLGTQVTVSS”, the “polyreactivity (PSR sort gate)” value was “high polyreactivity”.
With “QVQLVESGRGLVQAGGSLRLSCAASGSTRRYVMGWYRQAPGKERELVAVISRGGSTYYADSVKGRFTISRDNAKNSVYLQMNSLKPEDTAVYYCNGQPVIPRGGDYWGQATQVTVSS” the “polyreactivity (PSR sort gate)” value was “high polyreactivity”.
In the case of “QVQLVESGRGLVQAGGSLRLSCAASGVIFSIYAMGWYRQAPGKERELVAAISTSGGSTYYADSVKGRFTISRDNAKNTVYLQMNRLKPEDTAVYYCNARRGFYWSWRGRYISGDYWGQGTQVTVSS”, the “polyreactivity (PSR sort gate)” value is reported as “high polyreactivity”.
In the case of “QVQLVESGRGLVQAGGSLRLSCAGSGSIFEGYVMGWSRQAPGKEMELVAAITSGGGSTYYADSVKGRFTSSRDNAKNTVYLQMISVKPVDTALYYCNAVYRWVYRSYEYWGQGTQGTVSS”, the “polyreactivity (PSR sort gate)” value is reported as “high polyreactivity”.
In the case of “QVQLVESGRGLVQAGGSLRLSCASSGRIFARNAMGWYRKAPGQEREFVAAITFSGGSTYYAESVKGRFTISRDNAKNTVYLQMNSLKPEDTAVYYCAARSFDDWGQGTQVTVSS”, the “polyreactivity (PSR sort gate)” value is reported as “high polyreactivity”.
In the case of “QVQLVESGRGLVQAGGSLRLSCDSSGLTFTYNAMGWYRQAPGKERELVAVISYGGGSTYYADSVKGRFTISRDNAKNTVYLQMNSLNPEDNAVYYCAAVYGGYLYYYGGYAEYDYWGQGTQVTVSS”, the “polyreactivity (PSR sort gate)” value is reported as “low polyreactivity”.
For “QVQLVESGRGLVQAGGSLRLSFAASGITFGPNEMGWYRQAPGKERELVAAISKSGGTTYYADSVKGRFTISRDNAKNTDYLQMNSLKPEDTAVYYCAARCYPYYASFRYDYWGQGTQVTVSS”, the “polyreactivity (PSR sort gate)” value was “high polyreactivity”.
For “QVQLVESGRGLVQAGGTLRLSCAASGSTFNKYAMGWYRQAPGKERELVAAIRSNGVRTYYADSVKVRLTISRDNAKNTVYLQMNSLNPEDTAVYYCNKRYTYRYDYWGQGTQVTVSS”, the “polyreactivity (PSR sort gate)” value was “high polyreactivity”.
For “QVQLVESGVALVQAAGSLRLRCAAYGSTFSYNAMGWYRQATGKERELVAAISGSGGTTYYADSVKGRFTISRDNAKNTVYLQMNSLKPEDTAVYYCAAELTRYRYFYHKRPMDYWGQGTQVTVSS”, the “polyreactivity (PSR sort gate)” value was “low polyreactivity”.
In the case of “QVQLVESGVCLDQAGGSLRLSCAASGRTFDYNAMGWYSQAPGKERELVAAIDSDGSTNYADSVKGRFTISRDNAKNTVYLQMNSLKPEDTAVYYCAASTLVVWKPGWQVEYGYWGQGTQVTVSS”, the “polyreactivity (PSR sort gate)” value is reported as “low polyreactivity”.
With “QVQLVESGVCLVQAGGSLRLSCAASGRIFYNYAMGWYRQAPGKERELVADISSSGTLTYYSDSVKGRFTISRDNAKNTVYLHMNSLKPEDTAVYYCAARYWFRFQYDYWGQGTQLTVSS” the “polyreactivity (PSR sort gate)” value was “high polyreactivity”.
With “QVQLVESGVGIVQAGGSLRLSCAASGFTFSSNAMGWYSQAPGKEREFVADISIIGGDTTYADSVKGRFTISRDNAKNTVYFQMNSLKAEDTADYYCIAKPPGWFWGGFSYNRYYYWGQGTQVTVSS” the “polyreactivity (PSR sort gate)” value was “low polyreactivity”.
In the case of “QVQLVESGVGIVQAGGSLRLSCAASGRIFARNAMVWYRHAPGKERELVATIRVGGGSTYYADSVKGRFTISRDNAKNTVYLQMNSLKPEDTAVYYCAVRQLYSYPGDRRGYYWGQGTQVTVSS”, the “polyreactivity (PSR sort gate)” value is reported as “low polyreactivity”.
For “QVQLVESGVGIVQAGGSLRLSCAASGRISYFNAMGWYRQAPGKERELVAAIRRSGGITYYADSVKGRFTISRDNAKNTVYLQMNSLKPEDTAVYYFATERYSWAERDFGYWGQGTLVTVSS”, the “polyreactivity (PSR sort gate)” value was “low polyreactivity”.
With “QVQLVESGVGLDQAGGSLRLSCAASGSTFFVNAMGWYRQAPGKEMELVAAISTSGGRTYYADSVKGRFRISRDNAKNNLYLQMKSLKPEDTAVYYGAAVSLSGGYGEYDYWGQGTKVTVSS” the “polyreactivity (PSR sort gate)” value was “high polyreactivity”.
In the case of “QVQLVESGVGLGQAGGSLRLSCAASGRTYWRYAMGWYRQAPGKETELVASINWNGGSTYYADSVKGRFTNSRDNAKNTVYLQMNSLKPEDTAVYYCAALRWPVYLFDYWGQGTQVTVSS”, the “polyreactivity (PSR sort gate)” value is reported as “high polyreactivity”.
In the case of “QVQLVESGVGLVQAGGILRLSCAASGSIFWPNAMGWYRHAPGKERELVAGISYSGGRTYYADSVKARFTISRDNEKNTVYLQMNSLKPEDTAVYYCTARRSSGYGYWGQGTHVTVSS”, the “polyreactivity (PSR sort gate)” value is reported as “high polyreactivity”.
In the case of “QVQLVESGVGLVQAGGSHRLSCSASGSIIEENSMGWYRQAPGKERELVAAITIGGRTNYADSVKGRFTISRDNAKNTVYLQMNSLKPEDTAVYYCAADLSSNKYFRFWTRYYYWGQGTQVTVSS”, the “polyreactivity (PSR sort gate)” value is reported as “low polyreactivity”.
For “QVQLVESGVGLVQAGGSLLLSCSSSGRIFDLNAMGWYRQAPGKERELVAVIDRDGSTYYADSVKGRFTISRDNAKNTVYLQMNSLKPEDTAVYYCNKYWYSRHVRYWAYYAEQRYDYWGQGTQVTVSS”, the “polyreactivity (PSR sort gate)” value was “low polyreactivity”.
For “QVQLVESGVGLVQAGGSLRISCAASRSTFWNNCMGWYRQAPGKERDLVAAITVRGGSTYYADSVKGRFTISRDNAKNTVYLQMNSLKPEDTAVYFCAADRWLYSWFFNYDQGDYWGQGTQVSVSS”, the “polyreactivity (PSR sort gate)” value was “low polyreactivity”.
With “QVQLVESGVGLVQAGGSLRLICAASGFIFFGNAMGWYRQAPGKERQLVAVITWSGGSTYADSVKGRFTISRDNAKNTVYLQMNSLKPEDTAVYYCAADQQTWWQYSLINEYDYWGQGTQVTVSS” the “polyreactivity (PSR sort gate)” value was “low polyreactivity”.

Reference: the nanobody polyreactivity screen of Harvey et al. (2022)
